For experiment [1], the target named is human serum albumin (human) (UniProt P02768). Put plainly: sandwich ELISA, HSA-coated plate, control antibody at 1 µM, anti-FITC detection.
The target of experiment [2] is interleukin-1 type 1 receptor (UniProt P14778). Put plainly: cell-based or functional assay.
Chain of UniProt P14778 (P14778 18-569 limits assumed): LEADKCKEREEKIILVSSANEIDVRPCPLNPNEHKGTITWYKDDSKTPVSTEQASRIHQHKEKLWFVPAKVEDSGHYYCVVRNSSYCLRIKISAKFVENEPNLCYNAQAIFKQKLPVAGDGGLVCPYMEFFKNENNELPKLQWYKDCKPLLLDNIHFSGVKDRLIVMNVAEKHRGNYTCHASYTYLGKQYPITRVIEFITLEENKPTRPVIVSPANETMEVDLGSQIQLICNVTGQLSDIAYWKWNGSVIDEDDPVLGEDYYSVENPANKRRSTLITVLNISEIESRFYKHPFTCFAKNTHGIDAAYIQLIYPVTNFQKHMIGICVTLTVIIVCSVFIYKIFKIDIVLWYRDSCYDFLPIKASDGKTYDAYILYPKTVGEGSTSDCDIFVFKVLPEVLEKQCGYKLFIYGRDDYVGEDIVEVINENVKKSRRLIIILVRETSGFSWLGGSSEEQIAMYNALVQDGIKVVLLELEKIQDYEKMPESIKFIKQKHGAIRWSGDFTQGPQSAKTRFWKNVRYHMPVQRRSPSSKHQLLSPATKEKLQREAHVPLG

With “FITC coupled antibody (negative control)”, in experiment [1], the OD600 came out at 0.049 OD600.

The substance “recombinant human IL-1ra (from UniProt P18510 26-177) (ligand)” displayed an ND50 (neutralizing dose 50) of IL-1-induced IL-8 secretion by MRC-5 cells in experiment [2] of 0.5 nM.

For the origin of these results see patent US20090214534A1.
